Source: US20150376264A1
Values joined by “and” are separate entries in the source; they are usually repeats but may differ in a detail not shown here. Identical values can stand only once. Like-named read-outs stand apart in the source and are kept apart here.

Assays:
Assay in all cases: cell-based or functional assay
relaxin receptor (LGR7) [1] = target: relaxin receptor (LGR7)
relaxin receptor (LGR7) [2] = target: relaxin receptor (LGR7); remark: listed apart in the source
Leptin receptor = target: Leptin receptor

Relaxin-2 (ligand)
Fluorescence reading (luciferase assay) at 0.00035 uM (relaxin receptor (LGR7) [1]): 14600
Fluorescence reading (luciferase assay) at 0.003153 uM (relaxin receptor (LGR7) [1]): 24500
Fluorescence reading (luciferase assay) at 0.00946 uM (relaxin receptor (LGR7) [1]): 30200 and 24900 and 28500
Fluorescence reading (luciferase assay) at 0.000000481 uM (relaxin receptor (LGR7) [2]): 1440 and 480 and 560
Fluorescence reading (luciferase assay) at 0.00000144 uM (relaxin receptor (LGR7) [2]): 2880 and 2160 and 1280
Fluorescence reading (luciferase assay) at 0.00000433 uM (relaxin receptor (LGR7) [2]): 4400 and 2400
Fluorescence reading (luciferase assay) at 0.000013 uM (relaxin receptor (LGR7) [2]): 10800 and 8960 and 9840
Fluorescence reading (luciferase assay) at 0.0000389 uM (relaxin receptor (LGR7) [2]): 12100 and 7120 and 12800
Fluorescence reading (luciferase assay) at 0.000117 uM (relaxin receptor (LGR7) [2]): 18500 and 18200
Fluorescence reading (luciferase assay) at 0.00035 uM (relaxin receptor (LGR7) [2]): 21500 and 19100
Fluorescence reading (luciferase assay) at 0.001051 uM (relaxin receptor (LGR7) [2]): 29000 and 26800
Fluorescence reading (luciferase assay) at 0.003153 uM (relaxin receptor (LGR7) [2]): 23300 and 23700

human leptin (R&D) (from UniProt P41159 22-167) (ligand)
EC50 (Baf3-LepR cell proliferation, AlamarBlue) (Leptin receptor): 0.352 nM
Fluorescent reading (AlamarBlue) at 0.01 pg/ml (6.25E-08 nM) (Leptin receptor): 2500 and 2520
Fluorescent reading (AlamarBlue) at 0.1 pg/ml (Leptin receptor): 1700
Fluorescent reading (AlamarBlue) at 0.1 pg/ml (6.25E-07 nM) (Leptin receptor): 2010
Fluorescent reading (AlamarBlue) at 10 pg/ml (Leptin receptor): 924
Fluorescent reading (AlamarBlue) at 10 pg/ml (6.25E-05 nM) (Leptin receptor): 2110
Fluorescent reading (AlamarBlue) at 100 pg/ml (6.25E-03 nM) (Leptin receptor): 725 and 1740
Fluorescent reading (AlamarBlue) at 1000 pg/ml (0.0625 nM) (Leptin receptor): 7000 and 5190
Fluorescent reading (AlamarBlue) at 10000 pg/ml (0.625 nM) (Leptin receptor): 26000 and 16500
Fluorescent reading (AlamarBlue) at 100000 pg/ml (6.25 nM) (Leptin receptor): 29000 and 15300
Fluorescent reading (AlamarBlue) at 1000000 pg/ml (62.5 nM) (Leptin receptor): 33500 and 26400
Fluorescent reading (AlamarBlue) at 10000000 pg/ml (6250 nM) (Leptin receptor): 38300 and 32400
